Laboratory results taken from article PMC2779157.

Key:
IRF3 = IRF3 (UniProt Q14653); experiment: Superdex-200 gel filtration after cell-free reaction; details: reference: reaction without virus-activated mitochondria; sites S385,S386,S396
[1] = target: IRF3, activated in vitro by virus-activated mitochondria (P5) and cytosolic extract (UniProt Q14653); experiment: SEC

IRF3, sequence (Q14653 whole entry, change not shown): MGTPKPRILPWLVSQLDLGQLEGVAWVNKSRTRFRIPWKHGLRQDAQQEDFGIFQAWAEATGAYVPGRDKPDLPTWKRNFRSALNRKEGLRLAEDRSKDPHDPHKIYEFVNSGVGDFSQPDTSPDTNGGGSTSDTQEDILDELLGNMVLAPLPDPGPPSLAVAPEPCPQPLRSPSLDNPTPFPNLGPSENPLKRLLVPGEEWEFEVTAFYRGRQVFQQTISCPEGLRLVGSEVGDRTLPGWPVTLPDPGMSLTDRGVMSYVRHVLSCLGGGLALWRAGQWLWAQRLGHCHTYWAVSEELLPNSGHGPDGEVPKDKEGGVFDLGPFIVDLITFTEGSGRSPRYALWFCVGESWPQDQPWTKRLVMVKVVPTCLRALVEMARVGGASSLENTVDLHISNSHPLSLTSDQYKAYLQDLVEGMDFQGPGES

Substance | other: apparent molecular mass (IRF3) | stoichiometry N [1]
IRF3 (from UniProt Q14653) reaction with virus-activated mitochondria (P5) | gained; reference 150 | –
IRF3, activated in vitro by virus-activated mitochondria (P5) and cytosolic extract (from UniProt Q14653 1-427) (natural protein) | – | 2
